Paper PMC6816099, “The finger loop of the SRA domain in the E3 ligase UHRF1 is a regulator of ubiquitin targeting and is required for the maintenance of DNA methylation”

Tests used:
[1] = molecular target: UHRF1 SRA SUVH5 finger swap (/ A. thaliana finger loop) (UniProt Q96T88); experiment: fluorescence polarization; settings: 0.05% NP-40, 10 nM FAM-DNA (temperature not stated), ITC: 25 mM HEPES, 1 mM DTT, 25 C
UHRF1 SRA (WT) = molecular target: T1, UHRF1 SRA (WT) (UniProt Q96T88 414-616); experiment: ITC; 35 uM protein in cell, 430 uM DNA in syringe; n 0.5-1.0; FP: 25 mM HEPES pH 7.5, 100 mM NaCl, 0.05% NP-40, 10 nM FAM-DNA (temperature not stated); ITC: 25 mM HEPES, 100 mM NaCl, 1 mM DTT, 25 C; settings: protein: recombinant; tags: N-terminal His6-MBP (retained); blunt
T1 sequence: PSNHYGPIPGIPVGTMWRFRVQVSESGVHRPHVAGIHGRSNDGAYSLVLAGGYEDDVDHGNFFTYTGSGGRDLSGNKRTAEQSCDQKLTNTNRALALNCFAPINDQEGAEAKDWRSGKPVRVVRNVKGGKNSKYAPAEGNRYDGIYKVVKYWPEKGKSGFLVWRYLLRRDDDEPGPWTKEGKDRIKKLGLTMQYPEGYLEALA

Sequence of UHRF1 SRA SUVH5 finger swap (/ A. thaliana finger loop) (Q96T88 whole entry): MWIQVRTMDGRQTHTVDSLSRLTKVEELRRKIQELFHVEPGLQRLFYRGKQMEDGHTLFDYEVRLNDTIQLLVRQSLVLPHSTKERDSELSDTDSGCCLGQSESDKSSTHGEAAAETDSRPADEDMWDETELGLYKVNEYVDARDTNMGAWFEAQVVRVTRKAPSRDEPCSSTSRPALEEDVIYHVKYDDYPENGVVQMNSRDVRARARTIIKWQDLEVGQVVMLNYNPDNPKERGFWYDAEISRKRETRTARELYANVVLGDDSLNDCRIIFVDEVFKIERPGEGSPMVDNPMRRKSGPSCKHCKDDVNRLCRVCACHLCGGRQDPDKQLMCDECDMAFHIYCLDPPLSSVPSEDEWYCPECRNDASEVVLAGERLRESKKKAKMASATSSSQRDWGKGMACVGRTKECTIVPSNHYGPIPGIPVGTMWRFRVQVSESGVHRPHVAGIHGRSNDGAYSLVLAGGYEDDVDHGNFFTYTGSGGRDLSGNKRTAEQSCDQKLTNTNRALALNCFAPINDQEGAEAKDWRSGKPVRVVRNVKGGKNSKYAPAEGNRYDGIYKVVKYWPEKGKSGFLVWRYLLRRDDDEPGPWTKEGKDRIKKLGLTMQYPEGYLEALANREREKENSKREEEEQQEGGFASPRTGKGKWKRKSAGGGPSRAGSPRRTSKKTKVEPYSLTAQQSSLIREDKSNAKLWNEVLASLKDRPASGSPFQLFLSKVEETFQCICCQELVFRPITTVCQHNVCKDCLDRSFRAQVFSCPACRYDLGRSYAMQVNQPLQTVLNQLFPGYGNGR

Molecule: CCATGCGCTGAC (double strand) [He5mC (FAM)]
- Kd ([1]; 5mC at position 6 of strand 1, FP: 25 mM HEPES pH 7.5, 100 mM NaCl): 200 nM

Molecule: CCATGCGCTGAC (double strand) [Sy5mC]
- Kd ([1]; 5mC at position 6 of strand 1 and position 6 of strand 2, FP: 25 mM HEPES pH 7.5, 100 mM NaCl): 200 nM

Molecule: CCATGCGCTGAC (double strand) [UnDNA]
- Kd ([1]; FP: 25 mM HEPES pH 7.5, 100 mM NaCl): 200 nM

B1: He5mC (unlabelled, ITC) (dsDNA)
DNA 1: CCATGCGCTGAC
DNA 2: GTCAGCGCATGG
modifications: 5mC at position 6 of strand 1
- binding result (UHRF1 SRA (WT)): binds
